US20030166623A1 (BETH ISRAEL DEACONESS MEDICAL CENTER, published 2003)
Each block holds one binder with its values, some of them ahead of it.

Key:
Test in all cases: cell-based or functional assay
[1] = molecular target: T1, AR-DBD (yeast 2-hybrid bait) (UniProt P10275 506-636)
T1 sequence (looked up): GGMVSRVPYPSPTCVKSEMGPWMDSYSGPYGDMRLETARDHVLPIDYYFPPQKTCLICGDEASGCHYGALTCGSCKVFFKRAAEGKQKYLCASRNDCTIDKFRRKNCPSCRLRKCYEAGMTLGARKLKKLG

[2] = molecular target: T2, AR-DBD + LBD (yeast 2-hybrid bait) (UniProt P10275 506-920)
T2 sequence (looked up): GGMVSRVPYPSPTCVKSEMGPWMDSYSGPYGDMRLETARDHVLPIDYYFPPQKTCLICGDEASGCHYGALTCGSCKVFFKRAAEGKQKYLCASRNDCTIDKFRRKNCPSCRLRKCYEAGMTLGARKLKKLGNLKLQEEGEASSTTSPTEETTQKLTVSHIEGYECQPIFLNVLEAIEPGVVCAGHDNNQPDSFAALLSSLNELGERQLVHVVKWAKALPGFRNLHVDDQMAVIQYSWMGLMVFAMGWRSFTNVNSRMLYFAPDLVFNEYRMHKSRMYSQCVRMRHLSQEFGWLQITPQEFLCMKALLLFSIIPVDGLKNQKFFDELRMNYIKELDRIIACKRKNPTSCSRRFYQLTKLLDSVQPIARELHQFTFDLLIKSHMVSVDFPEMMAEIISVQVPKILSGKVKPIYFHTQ

[3] = molecular target: pAS2 vector (empty bait control)
[4] = molecular target: cortactin (yeast 2-hybrid bait)
[5] = molecular target: T3, AR-AT (yeast 2-hybrid bait) (UniProt P10275 1-505)
T3 sequence (looked up): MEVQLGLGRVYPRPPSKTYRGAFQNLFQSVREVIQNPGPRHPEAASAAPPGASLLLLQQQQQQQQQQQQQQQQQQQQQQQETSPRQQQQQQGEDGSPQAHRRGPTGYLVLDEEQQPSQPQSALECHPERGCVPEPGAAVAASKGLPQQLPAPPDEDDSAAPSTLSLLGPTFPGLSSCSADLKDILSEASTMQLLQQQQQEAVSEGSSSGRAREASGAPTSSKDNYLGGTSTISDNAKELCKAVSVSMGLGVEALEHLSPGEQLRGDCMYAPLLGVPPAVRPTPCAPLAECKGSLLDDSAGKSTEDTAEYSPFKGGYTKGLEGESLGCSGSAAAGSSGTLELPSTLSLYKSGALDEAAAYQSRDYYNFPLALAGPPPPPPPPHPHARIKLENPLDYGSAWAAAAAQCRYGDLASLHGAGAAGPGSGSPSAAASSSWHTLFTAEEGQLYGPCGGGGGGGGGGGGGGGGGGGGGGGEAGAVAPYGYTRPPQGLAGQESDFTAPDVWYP

- Fold induction of β-galactosidase by DHT (yeast 2-hybrid) [1]: 0.9 fold
- Fold induction of β-galactosidase by DHT (yeast 2-hybrid) [2]: 27 fold
- Fold induction of β-galactosidase by DHT (yeast 2-hybrid) [3]: 1.2 fold
- Fold induction of β-galactosidase by DHT (yeast 2-hybrid) [4]: 1 fold
- Fold induction of β-galactosidase by DHT (yeast 2-hybrid) [5]: 1.1 fold
B1: pACT2-PAK (yeast 2-hybrid prey) (other, not shown: large carriers)
chain: LKRRLFRSMFLSTAATAPPSSSKPGPPPQSKPNSSFRPPQKDNPPSLVAKAQSLPSDQPVGTFSPLTTSDTSSPQKSLRTAPATGQLPGRSSPAGSPRTWHAQISTSNLYLPQDPTVAKGALAGEDTGVVTHEQFKAALRMVVDQGDPRLLLDSYVKIGEGSTGIVCLAREKHSGRQVAVKMMDLRKQQRRELLFNEVVIMRDYQHFNVVEMYKNYLVGEELWVLMEFLQGGALTDIVSQVRLNEEQIATVCEAVLQALAYLHAQGVIHRDIKSDSILLTLDGRVKLSDFGFCAQISKDVPKRKSLVGTPYWMAPEVISRSLYATEVDIWSLGIMVIEMVDGEPPYFSDSPVQAMKRLRDSPPPKLKNSHKVSPVLRDFLERMLVRDPQERATAQELLDHPFLLQTGLPECLVPLIQLYRKQTSTC

- Fold induction of β-galactosidase by DHT (yeast 2-hybrid) [2]: 5.7 fold
B2: pGAD424-GRIP1 (yeast 2-hybrid prey, GRIP1 amino acids 730-1121) (other, UniProt Q61026 730-1121, looked up, not shown: large carriers)
chain: VKQEPASPKKKENALLRYLLDKDDTKDIGLPEITPKLERLDSKTDPASNTKLIAMKTVKEEVSFEPSDQPGSELDNLEEILDDLQNSQLPQLFPDTRPGAPTGSVDKQAIINDLMQLTADSSPVPPAGAQKAALRMSQSTFNNPRPGQLGRLLPNQNLPLDITLQSPTGAGPFPPIRNSSPYSVIPQPGMMGNQGMLGSQGNLGNNSTGMIGSSTSRPSMPSGEWAPQSPAVRVTCAATTGAMNRPVQGGMIRNPTASIPMRANSQPGQRQMLQSQVMNIGPSELEMNMGGPQYNQQQAPPNQTAPWPESILPIDQASFASQNRQPFGSSPDDLLCPHPAAESPSDEGALLDQLYLALRNFDGLEEIDRALGIPELVSQSQAVDAEQFSSQE
